Test system: K4 kissing-loop RNA reporter
Test: apparent KD of K4 kissing-loop reporter; higher = weaker reporter binding
Settings: Eterna round: R107
Description: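 RNA-MaP round R107: designed RNA switches with theophylline, tryptophan, arginine or FMN aptamers are transcribed on-chip within common flanks. They are titrated with a labelled K4 kissing-loop RNA reporter in RNA-MaP buffer (100 mM Tris pH 7.5, 80 mM KCl, 4 mM MgCl2), without ligand or with the indicated ligand. Median apparent KD per design.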

[1] = input ligand: theophylline 20 uM
[2] = input ligand: tryptophan 2.4 mM
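Further: bound reporter read as fluorescence of individual clusters on recovered sequencing chips by microscopy, with normalized cluster intensities fitted with a binding model.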

Row | Sequence | apparent KD of K4 kissing-loop reporter (input ligand: FMN 200 uM) | apparent KD of K4 kissing-loop reporter (input ligand: arginine 13.2 mM) | apparent KD of K4 kissing-loop reporter (input ligand: none) | apparent KD of K4 kissing-loop reporter [1] | apparent KD of K4 kissing-loop reporter [2]
1 | AGGAGCGUGGGAUGGAAAUCGCACGCUCCUCGAGGACCGGUACGGCCGCCACUCGCUCGCGCCGAGUGAUGUUCGGCCGGCGAAC [#2 Same State - Tryptophan A Attempt #11 (HarryS)] | 131 nM | 111 nM | 451 nM | 178 nM | 482 nM
2 | AGGAGCUGUCGACAAAAGUCGACAUAAACCAAGGAUAUGACGAAAGUCAGAAGGUGGUCAUAAGACCAGUGAUGUUGGUAGCUCC [FmnA 10 #SwitchBubble #K4Late] | 952 nM | 259 nM | 466 nM | 488 nM | 338 nM
3 | AGGAGUGAUGUUCCUACAUAGACGGUCCAACGAGGACCGGUACGGCCGCCACUCGCGACCCAGUGAUGUUGGGAUUCACCGUACA [Exclusion Tryptophan A Gf 14] | 723 nM | 753 nM | 818 nM | 836 nM | 812 nM
4 | AGGAGUGAUGUUCCUACAUAGACGGUCCGACGAGGACCGGUACGGCCGCCACUCGCGUCCCAGUGAUGUUGGGAUUCAACGUACA [Exclusion Tryptophan A Gf 15] | 120 nM | 150 nM | 139 nM | 149 nM | 122 nM
5 | AGGGAUGUUAAAGGAUAUAGAAAGUGAUGUUAGAAAGUGAGUGAUGUUGAUGUUAGUGAUGUUAUGUUAGAAGGUUAACAAAACG [a] | 256 nM | 149 nM | 211 nM | 192 nM | 161 nM
6 | AGGGCUGAGAGCGAUACCAGCGGAUACUAUAUGGUCCAAUAGAGUGAUGUUUUAUAAAGCCGCCCUUGGCAGCGCAAUCUAUUAG [XTheo-B4] | 1330 nM | 423 nM | 501 nM | 982 nM | 453 nM
7 | AGGUUUUACGGAGGAUAUGCACUGAGGAGGAGAAUAUAGUGAUGUUAUAUAAGAGGAAGGAGAAGAGUAGAAGGCCGUGAGGUUU [SSFMNB.M] | 136 nM | 130 nM | 149 nM | 204 nM | 98.6 nM
8 | AGGUUUUGAUUAGGAUAUGCACUGAGGAGGAGAAUAUAGUGAUGUUAUAUAAGAGGAAGGAGUAGAGUAGAAGGGAUUGAGGUUU [SSFMNB.R] | 249 nM | 164 nM | 199 nM | 172 nM | 188 nM
9 | AGUAAUGAGUGAUGUUCAAAUAGUAAGGAUACCAGUAAUUCAAAAUGCCCUUGGCAGCUUAACGCUACCAAUAGAUAAAUAAUGG [Theophilline A V2 (+2A)] | 134 nM | 166 nM | 144 nM | 172 nM | 96.8 nM
10 | AGUACAAUGGCGGCCGCCACUCAACAGCAGAUCAAAGAUCUGCUUCACUCAGUGAUGUUGAGUGAGAGGACCGGGCCUUUGUACA [Omei KL Tryp B SS B v4] | 793 nM | 614 nM | 783 nM | 853 nM | 216 nM
11 | AGUAGAGCAUCAGAUACCAGACAGAACUGAUGGUAAGGAGUGAUGUUCCUUAAUCAGCUUGUCCCUUGGCAGCUGAUAGUAGUCA [#14 K4 Theophylline B Same State] | 388 nM | 417 nM | 431 nM | 348 nM | 383 nM
12 | AGUCCACUCUAAAGAGUGGACCUAAGGGAUACCAGUGAUGUUGGUCACCCUUGGCAGCCCAGGGCCCGGGAUAAACCCGGGCCCA [#09 K4 Theophylline A Exclusion] | 120 nM | 100 nM | 113 nM | 99 nM | 113 nM
13 | AGUGAACGAGCGGCCGCCACUAACUGAGUGAUGUUCGUGAGUAGUGCUGUUCUCAUGAUUGUUUUUAGGACCGGGUUCGAUGUUG [ttbjmullin] | 483 nM | 329 nM | 391 nM | 431 nM | 360 nM
14 | AGUGAUGUAGUGUGUUGUUUGUGAAGUGAUCGAGGACCGGUACGGCCGCCACUCGAGUGAUGAGUGAGUGAUGUUUGUUUAGUGG [#18 K4 Tryptophan A Same State] | 379 nM | 283 nM | 376 nM | 412 nM | 303 nM
15 | AGUGAUGUAUGGCGGUUUGUCACUUAUUAUCAGGAUAUAUAAACAAAUAGAAGGGAUGGCGGAGUGAUGUUCCGCCGGCCGCCAU [FMN A Exl V5] | 172 nM | 140 nM | 150 nM | 157 nM | 166 nM
16 | AGUGCACUGGCAGGAUAUGUACAGUGAUGUUGUGUAUGUCAGCAAGUCAAAGACUUGCUCUUCUGUGCAGAAGGGCCUGUGUACA [#05 K4 FMN B Exclusion] | 442 nM | 526 nM | 668 nM | 532 nM | 534 nM
17 | AGUGCACUGUCAGGAUAUAUACAGUGAUGUUGUGUAUGUCAGCAAGUCAAAGACUUGCUCUUCUGUGUAGAAGGGACUGUGUACA [Omei KL FMN B Exc A v4] | 157 nM | 118 nM | 133 nM | 117 nM | 133 nM
18 | AGUUCUUGCCGAAGGAGCGAGGCAGAGUGAUGUUCUGCAGAUGUCGAAAGACAUCAACUGCCUCAGGUAGGUCGCGGCAUGAACA [#05 K4 Arginine B Exclusion] | 114 nM | 74 nM | 99.6 nM | 87.3 nM | 108 nM
19 | AUAAACUUGCAGUGAUGUUGCAAGUGAGACUAGGAUAUCAGGAAGCUGAGAAGGAGUCAUCUCCUUCAAACAUCACUAUGAAGGA [whbob_SS_FMNA__2th178] | 403 nM | 287 nM | 336 nM | 232 nM | 292 nM
20 | AUAAUAUGAGUGAUGUUCAUGUAAGCUGAAGGAGCGGACGAAAGUCCAGGUAGGUCGCAGCGUUCCUUUACCUCAUGAGAAGGAG [KL_SSArg-A1 #analogue] | 125 nM | 184 nM | 203 nM | 235 nM | 127 nM
21 | AUACGUUUAAGUGAUACCAGACUGGUGAGUGAUGUUUACCAAUAAAUUAAAUUAUUAGCUGUCCCUUGGCAGCACAGUUUAUUUA [JR_ExcTheophyB_Sub005] | 258 nM | 330 nM | 317 nM | 323 nM | 229 nM
22 | AUAGGAGUGAUGUUCCUUAGUUUCUCCGAUACCAGUAUGGAAACAUACCCUUGGCAGCGGGAGACCGCUGAUUAGGAAACUAGUC [Theophylline A K4 8] | 255 nM | 242 nM | 261 nM | 251 nM | 220 nM

Row | Sequence | apparent KD of K4 kissing-loop reporter (input ligand: FMN 200 uM) | apparent KD of K4 kissing-loop reporter (input ligand: arginine 13.2 mM) | apparent KD of K4 kissing-loop reporter (input ligand: none) | apparent KD of K4 kissing-loop reporter [1] | apparent KD of K4 kissing-loop reporter [2]
23 | AUCCGAGAAUAUGAUACCAGCUGAGUGUAUCAAGACCGUAUCUCCCGUGCUAGUGAUGUUAGCCCUUGGCAGCAUAUGAAAGCGG [theeternabot_exclusion_KL_Theo_B_15] | 635 nM | 518 nM | 467 nM | 517 nM | 570 nM
24 | AUCGUUGUCUGAGGAUAUCGGUUAACUGUAGUGAUGUUACAGAAAAUUCAUAUAAUAUUUUCUAUUCGAGAAGGCAGACUACGUA [JR_ExcFMNB_Sub018] | 205 nM | 157 nM | 167 nM | 178 nM | 177 nM
25 | AUCUGUCAAGGACAACAUUACUGAGGUGAUACCAGCAUCGAAAGAUGCCCUUGGCAGCACCAACUUGCAGUGAUGUUGCAAGUAA [BrourdMod 10 - Jieux - Exclusion - Theophylline A] | 346 nM | 236 nM | 332 nM | 393 nM | 299 nM
26 | AUGGUAUUGCGAGGAUAUCCUUCAAAUGUGACACUAACGGCAGUGAUGUUGCCGGCGUCUUUUUGAGGAGAAGGCGCGGUGUUAU [Exclusion FMN B GF 24] | 114 nM | 112 nM | 129 nM | 114 nM | 114 nM
27 | AUGUCUGAUAGCAGUGAUGUUGCUUCGGAUACCAGACGCGAUCUUGUCCCUUGGCAGCUGACACGGCACGUGCUAGGUUAGAAGG [whbob_Ex_Theo_A_th75] | 169 nM | 125 nM | 155 nM | 124 nM | 134 nM
28 | AUUAAUUUCAGAGGAUAUCGUAUUUAUAUUUUAUCUUUCCAUAUUUGCAGUGAUGUUGCAUUAAUUCGAGAAGGCUGAUUUAUAA [JR_ExcFMNB_Sub008] | 79 nM | 84 nM | 61.5 nM | 75.1 nM | 55.5 nM
29 | AUUAUAAAGUCGGCCGCCACUGAGAGUAGUGAUGUUACUCUUUUCCUUUAGAUAUUAUAUUUUAUCAGGACCGGGACAUCUGAUU [JR_Nu_ExcTryptoB_Sub024] | 147 nM | 126 nM | 148 nM | 134 nM | 130 nM
30 | AUUGAUAUAUAUAUUUGAUUUUUAUGUGAUACCAGACAAGGCAUAGUCCCUUGGCAGCACUUUAUAUUUACGAGUGAUGUUCGUA [JR_SSTheophyA_Sub025] | 192 nM | 180 nM | 180 nM | 187 nM | 154 nM
31 | AUUUAGACGAGUGAUGUUCGUGUUAUUACAGAGGAUAUGCGUAAUUGCAGAAGGCUGUAUUUAUAUAUGUUAUGUGGUUUUAAAA [whbob_Ex_FMNA__2th185] | 75.1 nM | 98 nM | 77.6 nM | 93.8 nM | 63 nM
32 | AUUUGUUUAUGUGAUACCAGACUUUGCAGUGAUGUUGCAUUUAUUUUAGAAUUUUAUUUAGUCCCUUGGCAGCACUAUGUAUUUA [JR_SSTheophyB_Sub007] | 47 nM | 90.4 nM | 53.1 nM | 92.5 nM | 45.9 nM
33 | AUUUUUUUAUCAGGAUAUUAGUGAUGGUUUGUUUUGUUAGUGAUGUUGAUAUUUGUUUUAUGUAUUUAAGAAGGGAUUGAGAUGU [seesullin] | 67 nM | 25.3 nM | 44.1 nM | 29.2 nM | 48.9 nM
34 | CAACCCUGCUUUUUCGAGUUUUAGGGAUGACGAGGACCGGUACGGCCGCCACUCGACUACACUGUUCAGUGAUGUUGAACGGCGG [Teveza] | 165 nM | 60 nM | 116 nM | 148 nM | 267 nM
35 | CAACCGUAACACGAUACCAGCCUAGAAGCCAGUGAUGUUGGCCUUUUUUCGGAAAUGAAAGGCCCUUGGCAGCGUGGAUAAAAUG [Lelabiised] | 451 nM | 464 nM | 505 nM | 379 nM | 501 nM
36 | CAAUGAGUAUAAGAUGAUAUCAUAACAGAAGGAGCGAGUGAUAACUCAGGUAGGUCGCUGAAUUUAUCGAGUGAUGUUCGAUAAA [whbob_SS_Arginine_A_sa116] | 205 nM | 154 nM | 187 nM | 166 nM | 184 nM
37 | CAAUGAGUAUAAGAUGAUAUCAUAACAGAAGGAGCGAGUGAUAACUCAGGUAGGUCGCUGAAUUUAUCGAGUGAUGUUCGAUAGA [whbob_SS_Arginine_A_sa117] | 202 nM | 162 nM | 226 nM | 193 nM | 176 nM
38 | CAGCAGAGUGAUGUUCUGCUUACUGCGGAUACCAGCUUUGCCAGAGGCCCUUGGCAGCCGCACGGCUCAGUGAUGUUGGGUCACG [Same State Theophylline A GF 13] | 296 nM | 293 nM | 361 nM | 323 nM | 301 nM
39 | CAGGCCGAGUGAUGUUCGGUCUGAGUGAUAAAGGAUAUAAGGGAUUUUAGAAGGUUAUCUAAACAGACCAAACAUCUAUCCACUC [theeternabot_exclusion_KL_FMN_A_16] | 221 nM | 128 nM | 138 nM | 145 nM | 122 nM
40 | CAUACGCAUGGAGGAUAUGAGAUUACUCAUAUCAUUUAAUAUUCUCAGUGAUGUUGAGAUUUAGGCUCAGAAGGCCAUGUGUAUG [Ex FMN B 14] | 271 nM | 362 nM | 412 nM | 421 nM | 375 nM
41 | CAUACGCAUGGAGGAUAUGAGAUUACUCAUAUCAUUUAAUAUUCUCAGUGAUGUUGAGAUUUGGGCUCAGAAGGCCAUGUGUAUG [Ex FMN B 15] | 479 nM | 304 nM | 339 nM | 343 nM | 317 nM
42 | CAUACGCAUGGAGGAUAUGAGAUUUCUCAUAUUAUUUAAUAUUCUCAGUGAUGUUGAGAUUUAAACUCAGAAGGCCAUGUGUAUG [Ex FMN B 6] | 388 nM | 235 nM | 239 nM | 279 nM | 242 nM
43 | CAUGGACUUCCAGUGUAUCCAUGACUGGAUACCAGUCAGGAAACUGACCCUUGGCAGCCAGAACUGGAAGUGAUGUUUCCAGUAA [Design8] | 227 nM | 214 nM | 244 nM | 244 nM | 240 nM

Source: the supplement of paper PMC9170038
